# Measurements as given in article PMC11796320 (The Febs Journal, 2024).
# Several values for one entry are separate records, joined by “and”; a condition that tells them apart may be missing. Identical values can stand only once.
# B1: full-length mature human contactin-2 (CNTN2), residues 29-1012, wild type (natural protein, UniProt Q02246 29-1012, looked up)
# chain: LGSQTTFGPVFEDQPLSVLFPEESTEEQVLLACRARASPPATYRWKMNGTEMKLEPGSRHQLVGGNLVIMNPTKAQDAGVYQCLASNPVGTVVSREAILRFGFLQEFSKEERDPVKAHEGWGVMLPCNPPAHYPGLSYRWLLNEFPNFIPTDGRHFVSQTTGNLYIARTNASDLGNYSCLATSHMDFSTKSVFSKFAQLNLAAEDTRLFAPSIKARFPAETYALVGQQVTLECFAFGNPVPRIKWRKVDGSLSPQWTTAEPTLQIPSVSFEDEGTYECEAENSKGRDTVQGRIIVQAQPEWLKVISDTEADIGSNLRWGCAAAGKPRPTVRWLRNGEPLASQNRVEVLAGDLRFSKLSLEDSGMYQCVAENKHGTIYASAELAVQALAPDFRLNPVRRLIPAARGGEILIPCQPRAAPKAVVLWSKGTEILVNSSRVTVTPDGTLIIRNISRSDEGKYTCFAENFMGKANSTGILSVRDATKITLAPSSADINLGDNLTLQCHASHDPTMDLTFTWTLDDFPIDFDKPGGHYRRTNVKETIGDLTILNAQLRHGGKYTCMAQTVVDSASKEATVLVRGPPGPPGGVVVRDIGDTTIQLSWSRGFDNHSPIAKYTLQARTPPAGKWKQVRTNPANIEGNAETAQVLGLTPWMDYEFRVIASNILGTGEPSGPSSKIRTREAAPSVAPSGLSGGGGAPGELIVNWTPMSREYQNGDGFGYLLSFRRQGSTHWQTARVPGADAQYFVYSNESVRPYTPFEVKIRSYNRRGDGPESLTALVYSAEEEPRVAPTKVWAKGVSSSEMNVTWEPVQQDMNGILLGYEIRYWKAGDKEAAADRVRTAGLDTSARVSGLHPNTKYHVTVRAYNRAGTGPASPSANATTMKPPPRRPPGNISWTFSSSSLSIKWDPVVPFRNESAVTGYKMLYQNDLHLTPTLHLTGKNWIEIPVPEDIGHALVQIRTTGPGGDGIPAEVHIVRNGGTSMMVEN
# modifications: N-linked glycans at Asn76, Asn198, Asn461, Asn477, Asn498, Asn525 (densities in the cryo-EM map)
# Key:
# [1] = molecular target: the molecule itself; test: cryo-EM 2D classification
# cryo-EM structure = molecular target: the molecule itself; test: cryo-EM structure
protein,measurement,setting,value
B1,stoichiometry N,[1],4 and 6
same,stoichiometry N,cryo-EM structure,2
